The target of test [1] is T1, 4H949-bA.
T1 chain: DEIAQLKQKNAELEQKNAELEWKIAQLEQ
The experiment in a line: two-hybrid library CCNG1.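 Further: natural log of median RNA to DNA barcode read ratio; higher means stronger binding.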

In test [2] the target is T2, 4H3413-AA.
T2 chain: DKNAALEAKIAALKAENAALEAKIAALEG
The test can be described thus: two-hybrid library CCmax.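 Further: natural log of median RNA to DNA barcode read ratio; higher means stronger binding.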

The target in test [3] is T3, 4H3588-AA.
T3 chain: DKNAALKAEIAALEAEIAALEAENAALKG
The test can be described thus: two-hybrid library CCmax.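 Further: natural log of median RNA to DNA barcode read ratio; higher means stronger binding.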 As to conditions: mean of both orientations.

In test [4] the target is T4, 4H3606-AA.
T4 chain: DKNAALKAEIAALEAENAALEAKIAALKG
The test can be described thus: two-hybrid library CCmax.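 Further: natural log of median RNA to DNA barcode read ratio; higher means stronger binding.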 As to conditions: mean of both orientations.

The target of test [5] is T5, 4H3631-AA.
T5 chain: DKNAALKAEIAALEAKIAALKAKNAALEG
The test can be described thus: two-hybrid library CCmax. As to conditions: mean of both orientations.

For test [6], the target named is T6, 4H3697-AA.
T6 chain: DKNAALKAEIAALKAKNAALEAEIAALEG
The test can be described thus: two-hybrid library CCmax. Particulars: mean of both orientations.

Test [7] has as its target T7, 4H3718-AA.
T7 chain: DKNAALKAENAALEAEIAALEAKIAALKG
The experiment in a line: two-hybrid library CCmax. As to conditions: mean of both orientations.

Test [8] has as its target T8, 4H384-AA.
T8 chain: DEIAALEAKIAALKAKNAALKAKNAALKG
The test can be described thus: two-hybrid library CCmax. Particulars: mean of both orientations.

Test [9] addresses T9, 4H3865-AA.
T9 chain: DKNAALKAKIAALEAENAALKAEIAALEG
The experiment in a line: two-hybrid library CCmax. As to conditions: mean of both orientations.

In test [10] the target is T10, 4H697-AA.
T10 chain: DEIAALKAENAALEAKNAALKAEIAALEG
The experiment in a line: two-hybrid library CCmax. As to conditions: mean of both orientations.

Test [11] has as its target T11, 4H982-AA.
T11 chain: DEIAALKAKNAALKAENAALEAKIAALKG
The experiment in a line: two-hybrid library CCmax. As to conditions: mean of both orientations.

For test [12], the target named is T12, 4H949-bN.
T12 chain: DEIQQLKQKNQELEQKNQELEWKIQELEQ
The test can be described thus: two-hybrid library CCNG1.

The target of test [13] is T13, 4H607-bA.
T13 chain: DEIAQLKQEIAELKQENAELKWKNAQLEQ
The test can be described thus: two-hybrid library CCNG1.

Test [14] deals with T14, 4H687-bA.
T14 chain: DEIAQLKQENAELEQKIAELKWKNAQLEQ
The test can be described thus: two-hybrid library CCNG1.

The target of test [15] is T15, 4H717-bA.
T15 chain: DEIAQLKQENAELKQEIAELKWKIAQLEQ
The experiment in a line: two-hybrid library CCNG1.

For test [16], the target named is T16, 4H72-bA.
T16 chain: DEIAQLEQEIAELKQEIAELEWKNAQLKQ
The experiment in a line: two-hybrid library CCNG1.

In test [17] the target is T17, 4H754-bA.
T17 chain: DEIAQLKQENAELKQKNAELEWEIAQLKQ
The test can be described thus: two-hybrid library CCNG1.

The target of test [18] is T18, 4H797-bA.
T18 chain: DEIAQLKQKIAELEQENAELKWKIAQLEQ
The experiment in a line: two-hybrid library CCNG1.

In test [19] the target is T19, 4H883-bA.
T19 chain: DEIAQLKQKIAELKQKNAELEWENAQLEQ
The test can be described thus: two-hybrid library CCNG1.

Test [20] concerns the target T20, 4H908-bA.
T20 chain: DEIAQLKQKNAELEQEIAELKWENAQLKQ
The experiment in a line: two-hybrid library CCNG1.

Test [21] deals with T21, 4H918-bA.
T21 chain: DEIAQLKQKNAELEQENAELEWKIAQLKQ
The test can be described thus: two-hybrid library CCNG1.

Test [22] concerns the target T22, 4H953-bA.
T22 chain: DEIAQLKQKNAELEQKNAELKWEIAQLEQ
The test can be described thus: two-hybrid library CCNG1.

The target in test [23] is T23, 4H953-bH.
T23 chain: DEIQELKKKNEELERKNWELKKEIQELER
The test can be described thus: two-hybrid library CCNG1.

For test [24], the target named is T24, 4H967-bA.
T24 chain: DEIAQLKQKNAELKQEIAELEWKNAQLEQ
The experiment in a line: two-hybrid library CCNG1.

The target of test [25] is T25, 4H932-bN.
T25 chain: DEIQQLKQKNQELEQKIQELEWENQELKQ
The test can be described thus: two-hybrid library CCNG1.

The target in test [26] is T26, 4H3009-AA.
T26 chain: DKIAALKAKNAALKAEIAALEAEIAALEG
The test can be described thus: two-hybrid library CCmax.

Test [27] addresses T27, 4H3016-AA.
T27 chain: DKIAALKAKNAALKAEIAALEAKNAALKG
The test can be described thus: two-hybrid library CCmax. Particulars: mean of both orientations.

In test [28] the target is T28, 4H310-AA.
T28 chain: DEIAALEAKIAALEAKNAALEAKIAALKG
The experiment in a line: two-hybrid library CCmax. Particulars: mean of both orientations.

Test [29] deals with T29, 4H3120-AA.
T29 chain: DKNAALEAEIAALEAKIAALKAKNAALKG
The experiment in a line: two-hybrid library CCmax. As to conditions: mean of both orientations.

The target of test [30] is T30, 4H3130-AA.
T30 chain: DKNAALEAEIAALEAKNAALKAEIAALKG
The test can be described thus: two-hybrid library CCmax. Particulars: mean of both orientations.

Test [31] concerns the target T31, 4H3165-AA.
T31 chain: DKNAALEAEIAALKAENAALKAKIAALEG
The experiment in a line: two-hybrid library CCmax. Particulars: mean of both orientations.

Test [32] deals with T32, 4H3381-AA.
T32 chain: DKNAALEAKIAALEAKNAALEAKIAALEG
The test can be described thus: two-hybrid library CCmax. Particulars: mean of both orientations.

For test [33], the target named is T33, 4H3395-AA.
T33 chain: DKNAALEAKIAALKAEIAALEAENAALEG
The experiment in a line: two-hybrid library CCmax.

Test [34] addresses T34, 4H3410-AA.
T34 chain: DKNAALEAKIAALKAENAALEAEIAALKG
The experiment in a line: two-hybrid library CCmax. As to conditions: mean of both orientations.

Test [35] addresses T35, 4H3590-AA.
T35 chain: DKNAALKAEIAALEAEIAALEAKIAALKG
The test can be described thus: two-hybrid library CCmax. As to conditions: mean of both orientations.

The target of test [36] is T36, 4H3753-AA.
T36 chain: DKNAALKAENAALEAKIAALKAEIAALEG
The experiment in a line: two-hybrid library CCmax. As to conditions: mean of both orientations.

Test [37] has as its target T37, 4H458-AA.
T37 chain: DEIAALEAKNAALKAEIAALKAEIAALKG
The experiment in a line: two-hybrid library CCmax. As to conditions: mean of both orientations.

Test [38] concerns the target T38, 4H485-AA.
T38 chain: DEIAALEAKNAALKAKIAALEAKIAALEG
The experiment in a line: two-hybrid library CCmax. Particulars: mean of both orientations.

Test [39] has as its target T39, 4H536-AA.
T39 chain: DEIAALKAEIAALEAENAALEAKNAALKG
The experiment in a line: two-hybrid library CCmax. Particulars: mean of both orientations.

The target of test [40] is T40, 4H570-AA.
T40 chain: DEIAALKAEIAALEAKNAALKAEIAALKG
The test can be described thus: two-hybrid library CCmax. Particulars: mean of both orientations.

For test [41], the target named is T41, 4H629-AA.
T41 chain: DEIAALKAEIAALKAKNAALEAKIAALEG
The experiment in a line: two-hybrid library CCmax. As to conditions: mean of both orientations.

Test [42] addresses T42, 4H710-AA.
T42 chain: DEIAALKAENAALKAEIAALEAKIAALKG
The experiment in a line: two-hybrid library CCmax. As to conditions: mean of both orientations.

In test [43] the target is T43, 4H745-AA.
T43 chain: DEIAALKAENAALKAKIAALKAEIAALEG
The test can be described thus: two-hybrid library CCmax. Particulars: mean of both orientations.

In test [44] the target is T44, 4H797-AA.
T44 chain: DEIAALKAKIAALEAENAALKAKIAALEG
The test can be described thus: two-hybrid library CCmax. As to conditions: mean of both orientations.

Test [45] has as its target T45, 4H850-AA.
T45 chain: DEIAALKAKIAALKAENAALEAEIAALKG
The experiment in a line: two-hybrid library CCmax. Particulars: mean of both orientations.

Test [46] deals with T46, 4H891-AA.
T46 chain: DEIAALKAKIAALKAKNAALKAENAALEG
The experiment in a line: two-hybrid library CCmax.

In test [47] the target is T47, 4H909-AA.
T47 chain: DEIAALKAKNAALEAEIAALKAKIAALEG
The test can be described thus: two-hybrid library CCmax. As to conditions: mean of both orientations.

Test [48] has as its target T48, 4H930-AA.
T48 chain: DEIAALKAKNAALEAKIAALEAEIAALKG
The test can be described thus: two-hybrid library CCmax. As to conditions: mean of both orientations.

For test [49], the target named is T49, 4H94-AA.
T49 chain: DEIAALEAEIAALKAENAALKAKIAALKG
The test can be described thus: two-hybrid library CCmax. Particulars: mean of both orientations.

On to DEIAQLKQKNAELEQKNAELEWKIAQLEQ [4H949-bA], for which the interaction score in test [1] was -0.253.

For the molecule DKNAALEAKIAALKAENAALEAKIAALEG [4H3413-AA], the interaction score in test [2] was 0.362; in test [3], -1.34; in test [4], 1.14; in test [5] it was -1.19; in [6], -0.722; in test [7] it was -1.38. The interaction score was -0.506 in [8], 0.0208 in test [9], -0.828 in [10] and -1.39 in [11].

With DEIQQLKQKNQELEQKNQELEWKIQELEQ [4H949-bN], the interaction score in test [12] is -0.614.

Consider DEIAQLKQEIAELKQENAELKWKNAQLEQ [4H607-bA], for which the interaction score was 0.454 in [13]; -0.84 in test [14]; -0.469 in test [15]; -0.746 in test [16]; -0.503 in [17]; -0.394 in test [18]. The interaction score in test [19] was -1.28; in test [20], -0.62; in test [21], -1.07; in test [22] it was -0.667; in [23] it was -1.41; in test [24] it was -1.29.

For DEIQQLKQKNQELEQKIQELEWENQELKQ [4H932-bN], the interaction score was 1.01 in [25] and -1.08 in test [12].

Regarding DKIAALKAKNAALKAEIAALEAEIAALEG [4H3009-AA], the interaction score in [26] was 2.25; in [27], -1.16; in test [28], -0.567; in test [29], -0.531; in test [30], -0.967; in test [31], -1.43. Moreover, the interaction score is -1.54 in [32]; -1.73 in test [33]; 0.321 in test [34]; 0.389 in test [35]; 0.129 in test [6]; 1.09 in [36]. For the same molecule, the interaction score is -1.6 in test [9]; 0.956 in test [37]; 1.22 in test [38]; -1.35 in test [39]; -0.427 in test [40]; 1.67 in [41]. The interaction score in test [42] is 1.94; in test [43] it was 1.77; in test [44] it was -1.65; in test [45], 1.63; in test [46], -1.57; in test [47], 0.523. In addition, the results for the interaction score in test [48] and in [49] were -0.0462 and -0.794, respectively.

The record behind these values is article PMC10397247.
